Test results as given in patent US20230407326A1, “INDUCIBLE PROMOTER FOR VIRAL VECTOR PRODUCTION” (ASKLEPIOS BIOPHARMACEUTICAL, INC., priority 2020, published 2023).

Key:
Assay type in all cases: cell-based, human
HEK293-F cells [1] = assay: Luciferase expression from hypoxia-inducible promoters in transiently transfected HEK293-F cells under hypoxia; settings: hypoxia 5% oxygen, 3, 5 and 24 hrs
Procedure: (§1) 40 ml of cells were grown in a 250 ml vented Erlenmeyer flask (Sigma-Aldrich CLS431144) at 37° C., 20% O2, 8% CO2 with agitation at 100 rpm. Cells were seeded as described in the manufacturer's instructions (300,000 cells/ml). HEK293-F were obtained from Thermofisher, R79007.
(§2) One day before transfection, the cells were counted using a haemocytometer and split to 500,000 cells/ml.
On the day of transfection, the cells are seeded to 1,000,000 cells/ml in 500 μl of appropriate medium (Freestyle 293 expression medium, 12338002) in a 24 well plate. 0.625 μg of DNA per well was then added to 10 μl of OptiMem medium (Thermofisher; 11058021) and incubated for 5 minutes at room temperature. […]
After transfection the cells were incubated for 24 hrs in normoxia conditions (20% oxygen) before being switched to a gas mix of 5% oxygen, 10% carbon dioxide and 85% nitrogen (hypoxia). […] Induction of the promoters was assessed by using luciferase activity after 3, 5 and 24 hrs in hypoxia.
Luciferase activity was measured using LARII (Dual Luciferase Reporter 1000 assay system, Promega, E1980).
Media was removed from the cells at the respective time point (0, 3, 5, 24 hrs after induction). […] 10 μl of supernatant was pipetted into white 96-well plate and luminescence measured by addition of 50 μl of LARII substrate. […]

HEK293-F cells [2] = assay: Luciferase expression from forskolin-inducible promoters in HEK293-F cells after induction with forskolin; settings: 20 μM forskolin
Procedure: The forskolin-inducible promoters FORCSV-10, FOR-CMV-009, FMP-02 and FLP-01 were used to drive expression of luciferase in a PM-RQ vector in the suspension cell line HEK293-F. The tested promoters were synthesized directly upstream of the ATG of PM-RQ plasmid and the suspension cell lines were transiently transfected with the PM-RQ plasmid.
as §1, §2
On the day of transfection, the cells are seeded to 1,000,000 cells/ml in 500 μl of appropriate medium (Freestyle 293 expression medium, 12338002) in a 24 well plate. 0.625 μg of DNA per well was then added to 10 μl of OptiMem medium (Thermofisher; 11058021) and incubated for 5 minutes at room temperature.
Concurrently, 0.625 μl of Max reagent (Thermofisher, 16447100) was made up to 10 μl by addition of OptiMem and incubated for 5 minutes at room temperature. […]
24 hours after transfection, the promoters were induced by addition of 20 μM forskolin and luciferase activity was measured 0, 3, 5 and 24 hours after induction. Luciferase activity was measured as previously described.

Pro10 cells [3] = assay: Rep78 expression (western blot) from new forskolin promoter designs in Pro10 cells; settings: Pro10, 10 uM forskolin or DMSO, 24 hrs
Procedure: Each of the promoters were tested for their ability to induce expression of the Rep78 protein. To eliminate the expression of Rep52 the ATG start codon in Rep52 was mutated to an AGG. All constructs were synthesized by Genewiz, see sequence files for full plasmid.
Pro10 cells were cultured and transfected using lipofectamine 2000 as previously described herein above. 24 hrs after transfection 10 uM forskolin was added to the cells. Control wells were given DMSO as forskolin was dissolved in this carrier. After another 24 hrs the cells were then lysed and lysates were analyzed for Rep78 expression via western blot (previously described). The best performing promoters were the TATA-m6a, YB and pJB42 (FIG. 29). […] The rest of the promoters have some level of background which indicates leaky expression.

Pro10 cells [4] = assay: Activation of FORN-pJB42 driving Rep78 by adenovirus helper functions; settings: with and without adenovirus helper functions, forskolin or DMSO
Procedure: The ability for the aforementioned helper functions to induce the activity of the best performing promoter FORN-pJB42 was next assessed. Transfections were carried out as previously described. Conditions were as follows: FORN-pJB42 controlling expression of Rep78 was transfected with and without the adenovirus helper functions. In addition, the transfected cells were also treated with forskolin at […] or vehicle DMSO control. Analysis of activity was as described in the previous section. […] However, it should be noted that full activity is not obtained until both the adenovirus helper functions and 10 μM forskolin were present.

B1: SYNP-HYP-001: synthetic hypoxia-inducible promoter, four HRE2 and a CMV minimal promoter, SEQ ID NO: 3 (nucleic acid)
DNA: CTGCACGTACTGCACGTACTGCACGTACTGCACGTATGGGTACCGTCGACGATATCGGATCCAGGTCTATATAAGCAGAGCTCGTTTAGTGAACCGTCAGATCGCCTAGATACGCCATCCACGCTGTTTTGACCTCCATAGAAGATCGCCACC
promoter activity (luciferase) relative to the other promoters (HEK293-F cells [1]): stronger

B2: FMP-02: forskolin-inducible promoter, 8×AP1(1) TFBS with MinTK, SEQ ID NO: 8 (nucleic acid)
DNA: TGAGTCAGATGATGCGTAGCTAGTAGTTGAGTCAGATGATGCGTAGCTAGTAGTTGAGTCAGATGATGCGTAGCTAGTAGTTGAGTCAGATGATGCGTAGCTAGTAGTTGAGTCAGATGATGCGTAGCTAGTAGTTGAGTCAGATGATGCGTAGCTAGTAGTTGAGTCAGATGATGCGTAGCTAGTAGTTGAGTCAGTAGTCGTATGCTGATGCGCAGTTAGCGTAGCTGAGGTACCGTCGACGATATCGGATCCTTCGCATATTAAGGTGACGCGTGTGGCCTCGAACACCGAGCGACCCTGCAGCGACCCGCTTAA
promoter strength relative to the other promoters (HEK293-F cells [2]): weakest

B3: TATA-m6a: forskolin responsive enhancer element in combination with TATA-m6A minimal promoter, SEQ ID NO: 209 (nucleic acid)
DNA: AATAAAATATCTTTATTTTCATTACATCTGTGTGTTGGTTTTTTGTGTGCCATTGACGTCACGATTTGACGTCAACCATTGACGTCACGATTTGACGTCAACCATTGACGTCACGATTTGACGTCACGATTTGACGTCAACCATTGACTCACGATTTGACTCAACCATTGACTCACGATTTGACTCAACCATTGACTCACGATTTGACTCACGATTTATAAAAGGCAGAGCTCGTTTAGTGAACCGAAGCTTGGACTAAAGCGGACTTGTCTCGAG
Rep78 expression (western blot) (Pro10 cells [3]): no Rep78 expression in the absence of forskolin but strong expression on the presence

B4: FORCSV-10: forskolin-inducible promoter, 5×cAMPRE and 3×AP1(2) TFBS with SV40-MP, SEQ ID NO: 6 (nucleic acid)
DNA: TGACGTCACGATTACCATTGACGTCACGATTACCATTGACGTCACGATTACCATTGACGTCACGATTACCATTGACGTCAGCGATTAAGATGACTCAGCGATTAAGATGACTCAGCGATTAAGATGACTCAGCGATTAAGATGACTCACTAGCCCGGGCTCGAGATCTGCGATCTGCATCTCAATTAGTCAGCAACCATAGTCCCGCCCCTAACTCCGCCCATCCCGCCCCTAACTCCGCCCAGTTCCGCCCATTCTCCGCCCCATCGCTGACTAATTTTTTTTATTTATGCAGAGGCCGAGGCCGCCTCGGCCTCTGAGCTATTCCAGAAGTAGTGAGGAGGCTTTTTTGGAGGCCTAGGCTTTTGCAAA
promoter strength relative to the other promoters (HEK293-F cells [2]): strongest

B5: FORN-pJB42: forskolin responsive enhancer element in combination with pJB42 minimal promoter, SEQ ID NO: 211 (nucleic acid)
DNA: AATAAAATATCTTTATTTTCATTACATCTGTGTGTTGGTTTTTTGTGTGCCATTGACGTCACGATTTGACGTCAACCATTGACGTCACGATTTGACGTCAACCATTGACGTCACGATTTGACGTCACGATTTGACGTCAACCATTGACTCACGATTTGACTCAACCATTGACTCACGATTTGACTCAACCATTGACTCACGATTTGACTCACGATTCTGACAAATTCAGTATAAAAGCTTGGGGCTGGGGCCGAGCACTGGGGACTTTGAGGGTGGCCAGGCCAGCGTAGGAGGCCAGCGTAGGATCCTGCTGGGAGCGGGGAACTGAGGGAAGCGACGCCGAGAAAGCAGGCGTACCACGGAGGGAGAGAAAAGCTCCGGAAGCCCAGCAGCGGCCACC
Rep78 expression (western blot) (Pro10 cells [3]): no Rep78 expression in the absence of forskolin but strong expression on the presence | activation of the promoter driving Rep78 (Pro10 cells [4]): activated by the presence of the helper functions, even in the absence of forskolin
